Assay results reported in PMC6359974.

Molecular target: polymerized MTs of COV362 lysate (taxol-treated) (human (endogenous in COV362)) (UniProt P68363)
Assay: co-sedimentation

UniProt P68363, sequence (P68363 whole entry, chain 1 of 2): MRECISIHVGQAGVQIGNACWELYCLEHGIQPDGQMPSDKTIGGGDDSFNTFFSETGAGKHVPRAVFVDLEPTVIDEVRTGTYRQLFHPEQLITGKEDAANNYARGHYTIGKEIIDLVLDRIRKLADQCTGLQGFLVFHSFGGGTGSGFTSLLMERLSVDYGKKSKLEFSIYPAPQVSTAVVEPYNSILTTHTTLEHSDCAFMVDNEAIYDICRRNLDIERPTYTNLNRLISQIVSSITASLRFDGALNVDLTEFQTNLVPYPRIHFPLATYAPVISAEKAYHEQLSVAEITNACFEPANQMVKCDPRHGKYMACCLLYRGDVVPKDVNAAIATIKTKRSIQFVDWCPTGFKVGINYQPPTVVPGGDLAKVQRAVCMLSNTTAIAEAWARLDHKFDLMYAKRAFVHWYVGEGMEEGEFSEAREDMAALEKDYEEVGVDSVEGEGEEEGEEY
UniProt P68363, sequence (P07437 whole entry, chain 2 of 2, further chain): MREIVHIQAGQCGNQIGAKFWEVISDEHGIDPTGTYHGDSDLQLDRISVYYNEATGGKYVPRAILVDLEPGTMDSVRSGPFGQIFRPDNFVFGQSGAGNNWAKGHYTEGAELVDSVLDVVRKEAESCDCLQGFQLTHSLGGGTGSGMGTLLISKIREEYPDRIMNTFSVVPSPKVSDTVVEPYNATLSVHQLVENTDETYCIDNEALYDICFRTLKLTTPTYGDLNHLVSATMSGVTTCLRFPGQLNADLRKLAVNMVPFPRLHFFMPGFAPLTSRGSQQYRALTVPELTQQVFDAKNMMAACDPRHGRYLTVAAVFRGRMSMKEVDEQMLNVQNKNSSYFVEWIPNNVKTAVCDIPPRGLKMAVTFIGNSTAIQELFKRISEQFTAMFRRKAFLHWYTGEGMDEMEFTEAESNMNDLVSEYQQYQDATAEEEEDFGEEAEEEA

B1: UNC-45A (endogenous, COV362 cells) (natural protein)
chain: MTVSGPGTPEPRPATPGASSVEQLRKEGNELFKCGDYGGALAAYTQALGLDATPQDQAVLHRNRAACHLKLEDYDKAETEASKAIEKDGGDVKALYRRSQALEKLGRLDQAVLDLQRCVSLEPKNKVFQEALRNIGGQIQEKVRYMSSTDAKVEQMFQILLDPEEKGTEKKQKASQNLVVLAREDAGAEKIFRSNGVQLLQRLLDMGETDLMLAALRTLVGICSEHQSRTVATLSILGTRRVVSILGVESQAVSLAACHLLQVMFDALKEGVKKGFRGKEGAIIVDPARELKVLISNLLDLLTEVGVSGQGRDNALTLLIKAVPRKSLKDPNNSLTLWVIDQGLKKILEVGGSLQDPPGELAVTANSRMSASILLSKLFDDLKCDAERENFHRLCENYIKSWFEGQGLAGKLRAIQTVSCLLQGPCDAGNRALELSGVMESVIALCASEQEEEQLVAVEALIHAAGKAKRASFITANGVSLLKDLYKCSEKDSIRIRALVGLCKLGSAGGTDFSMKQFAEGSTLKLAKQCRKWLCNDQIDAGTRRWAVEGLAYLTFDADVKEEFVEDAAALKALFQLSRLEERSVLFAVASALVNCTNSYDYEEPDPKMVELAKYAKQHVPEQHPKDKPSFVRARVKKLLAAGVVSAMVCMVKTESPVLTSSCRELLSRVFLALVEEVEDRGTVVAQGGGRALIPLALEGTDVGQTKAAQALAKLTITSNPEMTFPGERIYEVVRPLVSLLHLNCSGLQNFEALMALTNLAGISERLRQKILKEKAVPMIEGYMFEEHEMIRRAATECMCNLAMSKEVQDLFEAQGNDRLKLLVLYSGEDDELLQRAAAGGLAMLTSMRPTLCSRIPQVTTHWLEILQALLLSSNQELQHRGAVVVLNMVEASREIASTLMESEMMEILSVLAKGDHSPVTRAAAACLDKAVEYGLIQPNQDGE
B1 was tested, and the percent of UNC-45A bound to MTs was 100%.
